From patent US20130157953A1, “TREATMENT OF CARDIAC CONDITIONS” (Zealand Pharma A/S, priority 2010, published 2013)
Numbered stars: 1 amine (or outer) side, 2 acyl side, 3 side chain; on linkers, the order of the positions; unused ones are H or OH. Bridge positions count the residues as written; N and C are the ends. Square brackets hold non-standard residues; d marks the D form. Side chains are listed from the residue outwards. * marks the point of attachment. γGlu = O=C(O)[C@H](CCC(=O)[*:2])N[*:1]; εLys = N[C@@H](CCCCN[*:1])C(=O)[*:2]; Palmitoyl = CCCCCCCCCCCCCCCC(=O)*; Lauroyl = CCCCCCCCCCCC(=O)*; Aib = CC(C)(N)C(=O)O; Aoc = NCCCCCCCC(=O)O

How the values were obtained:
[1] = biological target: human glucagon-like peptide 1 receptor (GLP-1R) (human, UniProt P43220 24-463); assay: cell-based or functional assay
[2] = biological target: human glucagon receptor (Glucagon-R) (human, UniProt P47871 26-477); assay: cell-based or functional assay
Sequence of human glucagon receptor (Glucagon-R) (P47871 26-477): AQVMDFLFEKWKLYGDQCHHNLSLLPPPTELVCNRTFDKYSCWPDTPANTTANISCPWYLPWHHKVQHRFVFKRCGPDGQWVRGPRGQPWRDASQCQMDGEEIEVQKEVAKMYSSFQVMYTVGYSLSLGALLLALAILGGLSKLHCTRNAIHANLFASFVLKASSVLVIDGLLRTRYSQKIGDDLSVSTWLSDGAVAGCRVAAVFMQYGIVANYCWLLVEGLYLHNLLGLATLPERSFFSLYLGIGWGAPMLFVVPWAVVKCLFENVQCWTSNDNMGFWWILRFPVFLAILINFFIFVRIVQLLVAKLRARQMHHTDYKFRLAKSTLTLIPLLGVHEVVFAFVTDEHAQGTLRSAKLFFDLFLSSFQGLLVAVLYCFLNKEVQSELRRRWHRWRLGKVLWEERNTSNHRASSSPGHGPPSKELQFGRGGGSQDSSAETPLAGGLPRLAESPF

| Binder | EC50 (nM) GLP-1R; cAMP content, HEK293 cells expressing human GLP-1R [1] | EC50 (nM) GuR; cAMP content, HEK293 cells expressing the human glucagon receptor [2] |
| --- | --- | --- |
| H-H[Aib]QGTFTSDYSKYLDSK([γGlu-Palmitoyl])AAHDFVEWLLRA-NH2 (SMILES CCCCCCCCCCCCCCCC(=O)N[C@@H](CCC(=O)NCCCC[C@H](NC(=O)[C@H](CO)NC(=O)[C@H](CC(=O)O)NC(=O)[C@H](CC(C)C)NC(=O)[C@H](Cc1ccc(O)cc1)NC(=O)[C@H](CCCCN)NC(=O)[C@H](CO)NC(=O)[C@H](Cc1ccc(O)cc1)NC(=O)[C@H](CC(=O)O)NC(=O)[C@H](CO)NC(=O)[C@@H](NC(=O)[C@H](Cc1ccccc1)NC(=O)[C@@H](NC(=O)CNC(=O)[C@H](CCC(N)=O)NC(=O)C(C)(C)NC(=O)[C@@H](N)Cc1c[nH]cn1)[C@@H](C)O)[C@@H](C)O)C(=O)N[C@@H](C)C(=O)N[C@@H](C)C(=O)N[C@@H](Cc1c[nH]cn1)C(=O)N[C@@H](CC(=O)O)C(=O)N[C@@H](Cc1ccccc1)C(=O)N[C@H](C(=O)N[C@@H](CCC(=O)O)C(=O)N[C@@H](Cc1c[nH]c2ccccc12)C(=O)N[C@@H](CC(C)C)C(=O)N[C@@H](CC(C)C)C(=O)N[C@@H](CCCNC(=N)N)C(=O)N[C@@H](C)C(N)=O)C(C)C)C(=O)O) [Compound 206] | 0.09 nM | 0.16 nM |
| H-H[Aib]QGTFTSDYSKYLDSK([γGlu-Lauroyl])AAHDFVEWLLSA-NH2 (SMILES CCCCCCCCCCCC(=O)N[C@@H](CCC(=O)NCCCC[C@H](NC(=O)[C@H](CO)NC(=O)[C@H](CC(=O)O)NC(=O)[C@H](CC(C)C)NC(=O)[C@H](Cc1ccc(O)cc1)NC(=O)[C@H](CCCCN)NC(=O)[C@H](CO)NC(=O)[C@H](Cc1ccc(O)cc1)NC(=O)[C@H](CC(=O)O)NC(=O)[C@H](CO)NC(=O)[C@@H](NC(=O)[C@H](Cc1ccccc1)NC(=O)[C@@H](NC(=O)CNC(=O)[C@H](CCC(N)=O)NC(=O)C(C)(C)NC(=O)[C@@H](N)Cc1c[nH]cn1)[C@@H](C)O)[C@@H](C)O)C(=O)N[C@@H](C)C(=O)N[C@@H](C)C(=O)N[C@@H](Cc1c[nH]cn1)C(=O)N[C@@H](CC(=O)O)C(=O)N[C@@H](Cc1ccccc1)C(=O)N[C@H](C(=O)N[C@@H](CCC(=O)O)C(=O)N[C@@H](Cc1c[nH]c2ccccc12)C(=O)N[C@@H](CC(C)C)C(=O)N[C@@H](CC(C)C)C(=O)N[C@@H](CO)C(=O)N[C@@H](C)C(N)=O)C(C)C)C(=O)O) [Compound 214] | 0.14 nM | 0.78 nM |
| H-H[Aib]QGTFTSDYSKYLDSKAAHDFVEWLLK([γGlu-Palmitoyl])A-NH2 (SMILES CCCCCCCCCCCCCCCC(=O)N[C@@H](CCC(=O)NCCCC[C@H](NC(=O)[C@H](CC(C)C)NC(=O)[C@H](CC(C)C)NC(=O)[C@H](Cc1c[nH]c2ccccc12)NC(=O)[C@H](CCC(=O)O)NC(=O)[C@@H](NC(=O)[C@H](Cc1ccccc1)NC(=O)[C@H](CC(=O)O)NC(=O)[C@H](Cc1c[nH]cn1)NC(=O)[C@H](C)NC(=O)[C@H](C)NC(=O)[C@H](CCCCN)NC(=O)[C@H](CO)NC(=O)[C@H](CC(=O)O)NC(=O)[C@H](CC(C)C)NC(=O)[C@H](Cc1ccc(O)cc1)NC(=O)[C@H](CCCCN)NC(=O)[C@H](CO)NC(=O)[C@H](Cc1ccc(O)cc1)NC(=O)[C@H](CC(=O)O)NC(=O)[C@H](CO)NC(=O)[C@@H](NC(=O)[C@H](Cc1ccccc1)NC(=O)[C@@H](NC(=O)CNC(=O)[C@H](CCC(N)=O)NC(=O)C(C)(C)NC(=O)[C@@H](N)Cc1c[nH]cn1)[C@@H](C)O)[C@@H](C)O)C(C)C)C(=O)N[C@@H](C)C(N)=O)C(=O)O) [Compound 209] | 0.27 nM | 0.27 nM |
| H-H[Aib]QGTFTSDYSKYLDSKAAK([γGlu-Palmitoyl])DFVAWLLRA-NH2 (SMILES CCCCCCCCCCCCCCCC(=O)N[C@@H](CCC(=O)NCCCC[C@H](NC(=O)[C@H](C)NC(=O)[C@H](C)NC(=O)[C@H](CCCCN)NC(=O)[C@H](CO)NC(=O)[C@H](CC(=O)O)NC(=O)[C@H](CC(C)C)NC(=O)[C@H](Cc1ccc(O)cc1)NC(=O)[C@H](CCCCN)NC(=O)[C@H](CO)NC(=O)[C@H](Cc1ccc(O)cc1)NC(=O)[C@H](CC(=O)O)NC(=O)[C@H](CO)NC(=O)[C@@H](NC(=O)[C@H](Cc1ccccc1)NC(=O)[C@@H](NC(=O)CNC(=O)[C@H](CCC(N)=O)NC(=O)C(C)(C)NC(=O)[C@@H](N)Cc1c[nH]cn1)[C@@H](C)O)[C@@H](C)O)C(=O)N[C@@H](CC(=O)O)C(=O)N[C@@H](Cc1ccccc1)C(=O)N[C@H](C(=O)N[C@@H](C)C(=O)N[C@@H](Cc1c[nH]c2ccccc12)C(=O)N[C@@H](CC(C)C)C(=O)N[C@@H](CC(C)C)C(=O)N[C@@H](CCCNC(=N)N)C(=O)N[C@@H](C)C(N)=O)C(C)C)C(=O)O) [Compound 213] | 0.15 nM | 0.63 nM |
| H-H[Aib]QGTFTSDYSKYLDSK([εLys-Palmitoyl])AAHDFVEWLLSA-NH2 (SMILES CCCCCCCCCCCCCCCC(=O)NCCCC[C@H](N)C(=O)NCCCC[C@H](NC(=O)[C@H](CO)NC(=O)[C@H](CC(=O)O)NC(=O)[C@H](CC(C)C)NC(=O)[C@H](Cc1ccc(O)cc1)NC(=O)[C@H](CCCCN)NC(=O)[C@H](CO)NC(=O)[C@H](Cc1ccc(O)cc1)NC(=O)[C@H](CC(=O)O)NC(=O)[C@H](CO)NC(=O)[C@@H](NC(=O)[C@H](Cc1ccccc1)NC(=O)[C@@H](NC(=O)CNC(=O)[C@H](CCC(N)=O)NC(=O)C(C)(C)NC(=O)[C@@H](N)Cc1c[nH]cn1)[C@@H](C)O)[C@@H](C)O)C(=O)N[C@@H](C)C(=O)N[C@@H](C)C(=O)N[C@@H](Cc1c[nH]cn1)C(=O)N[C@@H](CC(=O)O)C(=O)N[C@@H](Cc1ccccc1)C(=O)N[C@H](C(=O)N[C@@H](CCC(=O)O)C(=O)N[C@@H](Cc1c[nH]c2ccccc12)C(=O)N[C@@H](CC(C)C)C(=O)N[C@@H](CC(C)C)C(=O)N[C@@H](CO)C(=O)N[C@@H](C)C(N)=O)C(C)C) [Compound 217] | 0.09 nM | 0.39 nM |
| H-H[Aib]QGTFTSDYSKYLDSK([γGlu-Palmitoyl])AAHDFVEWLLKA-NH2 (lactam 24-28; SMILES CCCCCCCCCCCCCCCC(=O)N[C@@H](CCC(=O)NCCCC[C@H](NC(=O)[C@H](CO)NC(=O)[C@H](CC(=O)O)NC(=O)[C@H](CC(C)C)NC(=O)[C@H](Cc1ccc(O)cc1)NC(=O)[C@H](CCCCN)NC(=O)[C@H](CO)NC(=O)[C@H](Cc1ccc(O)cc1)NC(=O)[C@H](CC(=O)O)NC(=O)[C@H](CO)NC(=O)[C@@H](NC(=O)[C@H](Cc1ccccc1)NC(=O)[C@@H](NC(=O)CNC(=O)[C@H](CCC(N)=O)NC(=O)C(C)(C)NC(=O)[C@@H](N)Cc1c[nH]cn1)[C@@H](C)O)[C@@H](C)O)C(=O)N[C@@H](C)C(=O)N[C@@H](C)C(=O)N[C@@H](Cc1c[nH]cn1)C(=O)N[C@@H](CC(=O)O)C(=O)N[C@@H](Cc1ccccc1)C(=O)N[C@H](C(=O)N[C@H]1CCC(=O)NCCCC[C@@H](C(=O)N[C@@H](C)C(N)=O)NC(=O)[C@H](CC(C)C)NC(=O)[C@H](CC(C)C)NC(=O)[C@H](Cc2c[nH]c3ccccc23)NC1=O)C(C)C)C(=O)O) [Compound 210] | 0.08 nM | 0.26 nM |
| H-H[Aib]QGTFTSDYSKYLDSK([Aoc-Palmitoyl])AAHDFVEWLLSA-NH2 (SMILES CCCCCCCCCCCCCCCC(=O)NCCCCCCCC(=O)NCCCC[C@H](NC(=O)[C@H](CO)NC(=O)[C@H](CC(=O)O)NC(=O)[C@H](CC(C)C)NC(=O)[C@H](Cc1ccc(O)cc1)NC(=O)[C@H](CCCCN)NC(=O)[C@H](CO)NC(=O)[C@H](Cc1ccc(O)cc1)NC(=O)[C@H](CC(=O)O)NC(=O)[C@H](CO)NC(=O)[C@@H](NC(=O)[C@H](Cc1ccccc1)NC(=O)[C@@H](NC(=O)CNC(=O)[C@H](CCC(N)=O)NC(=O)C(C)(C)NC(=O)[C@@H](N)Cc1c[nH]cn1)[C@@H](C)O)[C@@H](C)O)C(=O)N[C@@H](C)C(=O)N[C@@H](C)C(=O)N[C@@H](Cc1c[nH]cn1)C(=O)N[C@@H](CC(=O)O)C(=O)N[C@@H](Cc1ccccc1)C(=O)N[C@H](C(=O)N[C@@H](CCC(=O)O)C(=O)N[C@@H](Cc1c[nH]c2ccccc12)C(=O)N[C@@H](CC(C)C)C(=O)N[C@@H](CC(C)C)C(=O)N[C@@H](CO)C(=O)N[C@@H](C)C(N)=O)C(C)C) [Compound 216] | 0.24 nM | 0.46 nM |
